{"source": "patent US20220242906A1", "about": "(AGENCY FOR SCIENCE TECHNOLOGY AND RESEARCH, published 2022)", "binders": {"B1": {"name": "PHAGESOL (KKRYSRDQLVAL) (peptide)", "peptide": "KKRYSRDQLVAL", "notes": "Phage-derived linear peptive with the canonical motif; also called PHAGSOL; PhageSol peptide"}, "B2": {"name": "EE-19 (peptide)", "peptide": "ACDMGFFQDCG", "HELM": "PEPTIDE1{A.C.D.M.G.F.F.Q.D.C.G.[am]}$PEPTIDE1,PEPTIDE1,2:R3-10:R3$$$V2.0", "SMILES": "CSCC[C@@H]1NC(=O)[C@H](CC(=O)O)NC(=O)[C@@H](NC(=O)[C@H](C)N)CSSC[C@@H](C(=O)NCC(N)=O)NC(=O)[C@H](CC(=O)O)NC(=O)[C@H](CCC(N)=O)NC(=O)[C@H](Cc2ccccc2)NC(=O)[C@H](Cc2ccccc2)NC(=O)CNC1=O", "notes": "EE-02 with E3D"}, "B3": {"name": "EE-20 (peptide)", "peptide": "ACEIGFFQDCG", "HELM": "PEPTIDE1{A.C.E.I.G.F.F.Q.D.C.G.[am]}$PEPTIDE1,PEPTIDE1,2:R3-10:R3$$$V2.0", "SMILES": "CC[C@H](C)[C@@H]1NC(=O)[C@H](CCC(=O)O)NC(=O)[C@@H](NC(=O)[C@H](C)N)CSSC[C@@H](C(=O)NCC(N)=O)NC(=O)[C@H](CC(=O)O)NC(=O)[C@H](CCC(N)=O)NC(=O)[C@H](Cc2ccccc2)NC(=O)[C@H](Cc2ccccc2)NC(=O)CNC1=O", "notes": "EE-02 with M4I"}, "B4": {"name": "EE-31 (peptide)", "peptide": "ACEMGWFQDCG", "HELM": "PEPTIDE1{A.C.E.M.G.W.F.Q.D.C.G.[am]}$PEPTIDE1,PEPTIDE1,2:R3-10:R3$$$V2.0", "SMILES": "CSCC[C@@H]1NC(=O)[C@H](CCC(=O)O)NC(=O)[C@@H](NC(=O)[C@H](C)N)CSSC[C@@H](C(=O)NCC(N)=O)NC(=O)[C@H](CC(=O)O)NC(=O)[C@H](CCC(N)=O)NC(=O)[C@H](Cc2ccccc2)NC(=O)[C@H](Cc2c[nH]c3ccccc23)NC(=O)CNC1=O", "notes": "EE-02 with F6W"}, "B5": {"name": "EE-30 (ACEMGYFQDCG) (peptide)", "peptide": "ACEMGYFQDCG", "HELM": "PEPTIDE1{A.C.E.M.G.Y.F.Q.D.C.G.[am]}$PEPTIDE1,PEPTIDE1,2:R3-10:R3$$$V2.0", "SMILES": "CSCC[C@@H]1NC(=O)[C@H](CCC(=O)O)NC(=O)[C@@H](NC(=O)[C@H](C)N)CSSC[C@@H](C(=O)NCC(N)=O)NC(=O)[C@H](CC(=O)O)NC(=O)[C@H](CCC(N)=O)NC(=O)[C@H](Cc2ccccc2)NC(=O)[C@H](Cc2ccc(O)cc2)NC(=O)CNC1=O", "notes": "EE-02 with F6Y"}, "B6": {"name": "EE-40 (peptide)", "peptide": "ACEMGFFGDCG", "HELM": "PEPTIDE1{A.C.E.M.G.F.F.G.D.C.G.[am]}$PEPTIDE1,PEPTIDE1,2:R3-10:R3$$$V2.0", "SMILES": "CSCC[C@@H]1NC(=O)[C@H](CCC(=O)O)NC(=O)[C@@H](NC(=O)[C@H](C)N)CSSC[C@@H](C(=O)NCC(N)=O)NC(=O)[C@H](CC(=O)O)NC(=O)CNC(=O)[C@H](Cc2ccccc2)NC(=O)[C@H](Cc2ccccc2)NC(=O)CNC1=O", "notes": "EE-02 with Q8G"}, "B7": {"name": "EE-39 (ACEMGFFKDCG) (peptide)", "peptide": "ACEMGFFKDCG", "HELM": "PEPTIDE1{A.C.E.M.G.F.F.K.D.C.G.[am]}$PEPTIDE1,PEPTIDE1,2:R3-10:R3$$$V2.0", "SMILES": "CSCC[C@@H]1NC(=O)[C@H](CCC(=O)O)NC(=O)[C@@H](NC(=O)[C@H](C)N)CSSC[C@@H](C(=O)NCC(N)=O)NC(=O)[C@H](CC(=O)O)NC(=O)[C@H](CCCCN)NC(=O)[C@H](Cc2ccccc2)NC(=O)[C@H](Cc2ccccc2)NC(=O)CNC1=O", "notes": "EE-02 with Q8K"}, "B8": {"name": "EE-41 (ACEMGFFLDCG) (peptide)", "peptide": "ACEMGFFLDCG", "HELM": "PEPTIDE1{A.C.E.M.G.F.F.L.D.C.G.[am]}$PEPTIDE1,PEPTIDE1,2:R3-10:R3$$$V2.0", "SMILES": "CSCC[C@@H]1NC(=O)[C@H](CCC(=O)O)NC(=O)[C@@H](NC(=O)[C@H](C)N)CSSC[C@@H](C(=O)NCC(N)=O)NC(=O)[C@H](CC(=O)O)NC(=O)[C@H](CC(C)C)NC(=O)[C@H](Cc2ccccc2)NC(=O)[C@H](Cc2ccccc2)NC(=O)CNC1=O", "notes": "EE-02 with Q8L"}, "B9": {"name": "EE-35 (ACEMGFYQDCG) (peptide)", "peptide": "ACEMGFYQDCG", "HELM": "PEPTIDE1{A.C.E.M.G.F.Y.Q.D.C.G.[am]}$PEPTIDE1,PEPTIDE1,2:R3-10:R3$$$V2.0", "SMILES": "CSCC[C@@H]1NC(=O)[C@H](CCC(=O)O)NC(=O)[C@@H](NC(=O)[C@H](C)N)CSSC[C@@H](C(=O)NCC(N)=O)NC(=O)[C@H](CC(=O)O)NC(=O)[C@H](CCC(N)=O)NC(=O)[C@H](Cc2ccc(O)cc2)NC(=O)[C@H](Cc2ccccc2)NC(=O)CNC1=O", "notes": "EE-02 with F7Y"}, "B10": {"name": "EE-21 (peptide)", "peptide": "ACELGFFQDCG", "HELM": "PEPTIDE1{A.C.E.L.G.F.F.Q.D.C.G.[am]}$PEPTIDE1,PEPTIDE1,2:R3-10:R3$$$V2.0", "SMILES": "CC(C)C[C@@H]1NC(=O)[C@H](CCC(=O)O)NC(=O)[C@@H](NC(=O)[C@H](C)N)CSSC[C@@H](C(=O)NCC(N)=O)NC(=O)[C@H](CC(=O)O)NC(=O)[C@H](CCC(N)=O)NC(=O)[C@H](Cc2ccccc2)NC(=O)[C@H](Cc2ccccc2)NC(=O)CNC1=O", "notes": "EE-02 with M4L"}, "B11": {"name": "EE-36 (peptide)", "peptide": "ACEMGFWQDCG", "HELM": "PEPTIDE1{A.C.E.M.G.F.W.Q.D.C.G.[am]}$PEPTIDE1,PEPTIDE1,2:R3-10:R3$$$V2.0", "SMILES": "CSCC[C@@H]1NC(=O)[C@H](CCC(=O)O)NC(=O)[C@@H](NC(=O)[C@H](C)N)CSSC[C@@H](C(=O)NCC(N)=O)NC(=O)[C@H](CC(=O)O)NC(=O)[C@H](CCC(N)=O)NC(=O)[C@H](Cc2c[nH]c3ccccc23)NC(=O)[C@H](Cc2ccccc2)NC(=O)CNC1=O", "notes": "EE-02 with F7W"}, "B12": {"name": "EE-37 (peptide)", "peptide": "ACEMGYYQDCG", "HELM": "PEPTIDE1{A.C.E.M.G.Y.Y.Q.D.C.G.[am]}$PEPTIDE1,PEPTIDE1,2:R3-10:R3$$$V2.0", "SMILES": "CSCC[C@@H]1NC(=O)[C@H](CCC(=O)O)NC(=O)[C@@H](NC(=O)[C@H](C)N)CSSC[C@@H](C(=O)NCC(N)=O)NC(=O)[C@H](CC(=O)O)NC(=O)[C@H](CCC(N)=O)NC(=O)[C@H](Cc2ccc(O)cc2)NC(=O)[C@H](Cc2ccc(O)cc2)NC(=O)CNC1=O", "notes": "EE-02 with F6Y and F7Y"}, "B13": {"name": "EE-22 (peptide)", "peptide": "ACEXGFFQDCG", "modifications": "norleucine (Nle) at position 4; free N-terminal amine; C-terminal amide; disulphide bond between Cys2 and Cys10", "notes": "EE-02 with M4 replaced by norleucine"}, "B14": {"name": "EE-23 (peptide)", "peptide": "ACEXGFFQDCG", "HELM": "PEPTIDE1{A.C.E.[O=C([C@H](CC1CCC1)N[*:1])[*:2]].G.F.F.Q.D.C.G.[am]}$PEPTIDE1,PEPTIDE1,2:R3-10:R3$$$V2.0", "SMILES": "C[C@H](N)C(=O)N[C@H]1CSSC[C@@H](C(=O)NCC(N)=O)NC(=O)[C@H](CC(=O)O)NC(=O)[C@H](CCC(N)=O)NC(=O)[C@H](Cc2ccccc2)NC(=O)[C@H](Cc2ccccc2)NC(=O)CNC(=O)[C@H](CC2CCC2)NC(=O)[C@H](CCC(=O)O)NC1=O", "notes": "EE-02 with M4 replaced by cyclobutylalanine"}, "B15": {"name": "EE-28 (peptide)", "peptide": "ACEMXFFQDCG", "modifications": "sarcosine (Sar) at position 5; free N-terminal amine; C-terminal amide; disulphide bond between Cys2 and Cys10", "notes": "EE-02 with G5 replaced by sarcosine"}, "B16": {"name": "EE-44 (CEMGFFADC) (peptide)", "peptide": "CEMGFFADC", "HELM": "PEPTIDE1{C.E.M.G.F.F.A.D.C.[am]}$PEPTIDE1,PEPTIDE1,1:R3-9:R3$$$V2.0", "SMILES": "CSCC[C@@H]1NC(=O)[C@H](CCC(=O)O)NC(=O)[C@@H](N)CSSC[C@@H](C(N)=O)NC(=O)[C@H](CC(=O)O)NC(=O)[C@H](C)NC(=O)[C@H](Cc2ccccc2)NC(=O)[C@H](Cc2ccccc2)NC(=O)CNC1=O", "notes": "EE-02 without A1 and G11 and with Q8A"}}}
{"molecular_target": "T1, elongation initiation factor 4E (eIF4E) (UniProt P06730 2-217, limits assumed)", "T1 construct": "mature; In SPR it was amine-coupled to a CM5 chip with m7GTP present; also called full-length eIF4E; GS-eIF4E (biotinylated form used only for phage panning)", "T1 sequence (P06730 2-217 limits assumed)": "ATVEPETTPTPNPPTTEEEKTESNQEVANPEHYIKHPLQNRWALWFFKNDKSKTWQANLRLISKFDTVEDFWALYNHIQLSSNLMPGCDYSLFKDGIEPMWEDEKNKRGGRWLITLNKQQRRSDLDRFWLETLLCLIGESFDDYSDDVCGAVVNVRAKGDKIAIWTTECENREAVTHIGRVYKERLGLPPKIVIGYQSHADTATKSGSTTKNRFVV", "test": "competitive fluorescence anisotropy, panel 'Peptide Interaction Site': displacement of the FAM labelled tracer peptide …-(FAM) (50 nM) from eIF4E (200 nM) [cont'd) B]", "description": "Apparent Kd values were then determined for a variety of molecules via competitive anisotropy experiments.\n[L]ₛₜ and [L]ₜ denote labeled ligand and total unlabeled ligand input concentrations, respectively. Kd2 is the dissociation constant of the interaction between the unlabelled ligand and the protein. In all competitive types of experiments, it is assumed that [P]ₜ>[L]ₛₜ, otherwise considerable amounts of free labeled ligand would always be present and would interfere with measurements. Kd1 is the apparent Kd for the labeled peptide used in the respective experiment. […] Readings were carried out with a Envision Multi-label Reader (PerkinElmer). […] All titrations were carried out in triplicate. Curve-fitting was carried out using Prism 4.0 (GraphPad).", "units": {"IC50 (read off the curve)": "nM"}}
{"binder": "B1", "IC50 (read off the curve)": "~400"}
{"molecular_target": "T1, elongation initiation factor 4E (eIF4E)", "test": "SPR (Biacore T100), eIF4E immobilised on CM5 chip, peptide as analyte", "description": "Running buffer consisted of 10 mM Hepes pH 7.6, 0.15 M NaCl, and 0.1% Tween20. Stock/DMSO diluted peptide solutions were diluted into 1.03× running buffer to make a peptide solution with 3% DMSO final concentration. […] Surface Plasmon resonance experiments were performed on a Biacore T100 machine.\nPure eIF4E was immnobilized on a CM5 sensor chip. The CM5 chip was conditioned with a 6 s injection of 100 mM HCL, followed by a 6 s injection of 0.1% SDS and completed with a 6 s injection of 50 mM NaOH at a flow rate of 100 μl/min. Activation of the sensor chip surface was performed with a mixture of NHS (115 mg ml⁻¹) and EDC (750 mg ml⁻¹) for 7 min at 10 μl min⁻¹. Purified eIF4E was diluted with 10 mM sodium acetate buffer (pH 5.0) to a final concentration of 0.5 μM with m⁷GTP present in a 2:1 ratio in order to stabilize eIF4E. The amount of eIF4E immobilized on the activated surface was controlled by altering the contact time of the protein solution and was approximately 1000 RU. After the immobilization of the protein, a 7-min injection (at 10 μl min⁻¹) of 1 M ethanolamine (pH 8.5) was used to quench excess active succinimide ester groups.\nSix buffer blanks were first injected to equilibrate the instrument fully and then a solvent correction curve was performed followed by a further two blank injections. […] Using a flow rate of 50 μl/min, compounds were injected for 60 s and dissociation was monitored for 180 s. The data collection rate was 10 Hz. Kds were determined using the BiaEvaluation software (Biacore) and calculated from both the response of the eIF4E coated CM5 chips at equilibrium and also kinetically from the dissociation and association phase data for each of the peptides. Both the equilibrium and kinetic data were fitted to 1:1 binding models. Each individual peptide Kd was determined from three separate titrations. Within each titration at least two concentration points were duplicated to ensure stability and robustness of the chip surface.", "units": {"Kd": "nM", "Fold change (KD against EE-2)": "fold"}}
{"binder": "B2", "Kd": 26000}
{"binder": "B3", "Kd": 1600}
{"binder": "B4", "Kd": 5900}
{"binder": "B5", "Kd": 85}
{"binder": "B6", "Fold change (KD against EE-2)": 1.9, "Kd": 400}
{"binder": "B7", "Fold change (KD against EE-2)": 0.5, "Kd": 109}
{"binder": "B8", "Fold change (KD against EE-2)": 0.9, "Kd": 190}
{"binder": "B9", "Kd": 137}
{"binder": "B10", "Kd": 2500}
{"binder": "B11", "Kd": 2600}
{"binder": "B12", "Kd": 350}
{"binder": "B13", "Kd": 520}
{"binder": "B14", "Kd": 35000}
{"binder": "B15", "Kd": 4200}
{"binder": "B16", "Fold change (KD against EE-2)": 0.4, "Kd": 79}
